# Reference: the DeepSol protein solubility set
# Experiment: soluble on expression in E. coli; label from the status in PepcDB or PDB records
row,Sequence,soluble on expression in E. coli
1,MTILNHTLGFPRVGLRRELKKAQESYWAGNSTREELLAVGRELRARHWDQQKQAGIDLLPVGDFAWYDHVLTTSLLLGNVPARHQNKDGSVDIDTLFRIGRGRAPTGEPAAAAEMTKWFNTNYHYMVPEFVKGQQFKLTWTQLLDEVDEALALGHKVKPVLLGPITWLWLGKVKGEQFDRLSLLNDILPVYQQVLAELAKRGIEWVQIDEPALVLELPQAWLDAYKPAYDALQGQVKLLLTTYFEGVTPNLDTITALPVQGLHVDLVHGKDDVVELHKRLPSDWLLSAGLINGRNVWRADLTEKYVQIKDIVGKRDLWVASSCSLLHSPIDLSVETRLDAEVKSWFAFALQKCHELALLCDALNSGDTAALAEWSAPIQARRHSTRVHNPAVEKRLAAITAQDSQRANVYEVRAEAQRARFKLPAWPTTTIGSFPQTTEIRTLRLDFKKGNLDANNYRTGIAEHIRQAIVEQERLGLDVLVHGEAERNDMVEYFGEHLDGFVFTQNGWVQSYGSRCVKPPIVIGDVSRPAPITVEWAKYAQSMTDKPVKGMLTGPVTILCWSFPREDVSRETIAKQIALALRDEVADLEAAGIGIIQIDEPALREGLPLRRSDWDAYLQWGVEAFRINAAVAKDDTQIHTHMCYCEFNDIMDSIAALDADVITIETSRSDMELLESFEEFDYPNEIGPGVYDIHSPNVPSVEWIEALLKKAAKRIPAERLWVNPDCGLKTRGWPETRAALANMVQAAQNLRRG,not soluble
2,MTINFRRNALQLSVAALFSSAFMANAADVPQVKVTVTDKQCEPMTITVNAGKTQFIIQNHSQKALEWEILKGVMVVEERENIAPGFSQKMTANLQPGEYDMTCGLLTNPKGKLIVKGEATADAAQSDALLSLGGAITAYKAYVMAETTQLVTDTKAFTDAIKAGDIEKAKALYAPTRQHYERIEPIAELFSDLDGSIDAREDDYEQKAADPKFTGFHRLEKALFGDNTTKGMDQYAEQLYTDVVDLQKRISELAFPPSKVVGGAAGLIEEVAASKISGEEDRYSHTDLWDFQANVEGSQKIVDLLRPQLQKANPELLAKVDANFKKVDTILAKYRTKDGFETYDKLTDADRNALKGPITALAEDLAQLRGVLGLD,soluble
3,MTIQPPSSSSATEFCQPDESTFLVGFNRVRRYGTTQSQSSPVTPCSYTIYQVQTDDTLERIALKHNCSVSSLVRANKLWSPSALFMKQFIRIPIFNSQQPNLKPSLQETQCKIVPATTERVDSSREEKSMKDILQRIDRNIKSFRKCDNPSSSAYDHI,not soluble
4,MTIQTVIKENAYFDSVTLMTISTRANELAGVKTAMIGMGTDMNLEVIRNVGLYTPALDHVTTGDLLIVLDLDDQANSEEILQQVDELFTKKKKTASSEVTYKTLDSALHEEPDANLVVISVNGKFAAREAHKALDQQKHVMLFSDNVTVDEELALKQKAHEKELFVMGPDCGTAIINGVGLCFANEVRSGDIGIVGASGTGSQEVSVQIHKYGYGISQLIGTGGRDLSAEIGGLMMLDGLDTLMVDEQTKAILLISKPPAPEVTEKILKKLAVSTKPVVIYFIGSEQTERKIDNVTFATSSLDAVQKVIQFSQTQEAETSLYQNPTGATLTAIQQQQAPSQKFVRGLFCGGTLCDELLYALTEVSDDVYSNIHKISERQLANPDHSQAHTLIDFGDDRFTEGRPHPMIDPTSRITRILQEAKDPEVAVLALDFELGYGSHENPVGVLAEALKEAKAIAKADGRELAIIGYVLGTEEDPQDIHEQRKILEDLEVLVVDSSHQLCEATKTFVKGANEHEQK,not soluble
5,MTIRFDNVSYTYQKGTPYQHQAIHDVNTEFEQGKYYAIVGQTGSGKSTLIQNINALLKPTTGTVTVDDITITHKTKDKYIRPVRKRIGMVFQFPESQLFEDTVEREMIFGPKNFKMNLDEAKNYAHRLLMDLGFSRDVMSQSPFQMSGGQMRKIAIVSILAMNPDIIVVDEPTAGLDPQSKRQVMRLLKSLQTDENKAIILISHDMNEVARYADEVIVMKEGSIVSQTSPKELFKDKKKLADWHIGLPEIVQLQYDFEQKYQTKLKDIALTEEAFVSLYKEWQHEK,not soluble
6,MTKENTKSIADDGPYSGSFYGLAEDNANHGIFSSILKRKKRQQDKLSEDVKKRCGRVESYKSCCDRLHQALMYMLVENAVTSKQLVTGARTEPHYRYAGQYLKTYEIIANQGRDKTKYESLEPAIKALLTLDSEHEKKVRKQLENLKPLTKFIGEDYWEYVRLKKVYAESVDGYDEAVVLQNKGKTEDAETAATNAQTWMNDCRTKLMDFITVSISQQKAKHADCVLKFRDESVSYHKIMADSITTPEPAEGKSVVKTLKQ,not soluble
7,MTKISKIIDELNNQQADAAWITTPLNVYYFTGYRSEPHERLFALLIKKDGKQVLFCPKMEVEEVKASPFTGEIVGYLDTENPFSLYPQTINKLLIESEHLTVARQKQLISGFNVNSFGDVDLTIKQLRNIKSEDEISKIRKAAELADKCIEIGVSYLKEGVTECEVVNHIEQTIKQYGVNEMSFDTMVLFGDHAASPHGTPGDRRLKSNEYVLFDLGVIYEHYCSDMTRTIKFGEPSKEAQEIYNIVLEAETSAIQAIKPGIPLKDIDHIARNIISEKGYGEYFPHRLGHGLGLQEHEYQDVSSTNSNLLEAGMVITIEPGIYVPGVAGVRIEDDILVTNEGYEVLTHYEK,not soluble
8,MTKITVLSGKGGTGKTTVSVNMAKALSESYRVQLLDADVEEPNDHIFFNVDVSFEEPVHLMIPVVDNSVCIRCGECASTCQFGAISVFPSGTFVFESLCHGCGACSIMCPVNAISERPKEIGKIRFGTADGNISFGMGILNIGERTGVPVIRKLKKHIDEKADVVIVDAPPGTSCPVVESLRNTDFALLVTEPTAFGLHDLKLAVELTKEMGIPSGIVVNRYIPGNTIIEEFADEEGIPVLLKIPFKREIASLCAEGKLIVEAFQDMKKDFLELFEKIEVMVRLEHHHHHH,soluble
9,MTKKDKKAKGPKMSTITTKSGESLKVFEDLHDFETYLKGETEDQEFDHVHCQLKYYPPFVLHDAHDDPEKIKETANSHSKKFVRHLHQHVEKHLLKDIKTAINKPELKFHDKKKQESFDRIVWNYGEETELNAKKFKVSVEVVCKHDGAMVDVDYKTEPLQPLI,soluble
10,MTKKKAHKPGSATIALNKRARHEYFIEEEFEAGLALQGWEVKSLRAGKANISDSYVLLRDGEAFLFGANITPMAVASTHVVCDPTRTRKLLLNQRELDSLYGRVNREGYTVVALSLYWKNAWCKVKIGVAKGKKQHDKRSDIKEREWQVDKARIMKNAHR,soluble
11,MTKKVGVGQAHSKIILIGEHAVVYGYPAISLPLLEVEVTCKVVSAESPWRLYEEDTLSMAVYASLEYLDITEACVRCEIDSAIPEKRGMGSSAAISIAAIRAVFDYYQADLPHDVLEILVNRAEMIAHMNPSGLDAKTCLSDQPIRFIKNVGFTELEMDLSAYLVIADTGVYGHTREAIQVVQNKGKDALPFLHALGELTQQAEVAISQKYAEGLGLIFSQAHLHLKEIGVSSPEADFLVETALSYGALGAKMSGGGLGGCIIALVTNLTHAQELAERLEEKGAVQTWIESL,not soluble
12,MTKLNAFLDTLGEGIRQKFWDIVAAAKTDAQTNLPSDKAKELAGEVISDFEQGNLFKSHQEISAELKSKFESLDDADKAAVKNLAKVYGKQAKALVMPHLPEDCKAKTDATDDAGKAAVAGGFDTGDYLPRKKRELLFIDNLTAAFREMRSRRGF,not soluble
13,MTKPVLQDGETVVCQGTHAAIASELQAIAPEVAQSLAEFFAVLADPNRLRLLSLLARSELCVGDLAQAIGVSESAVSHQLRSLRNLRLVSYRKQGRHVYYQLQDHHIVALYQNALDHLQECR,soluble
14,MTKQIKVGVIGVGQMGQYHAEIYQKLPQVELVAICEFNDERRAEMAEKFQCKAYKDYHELLANTEIEAVIIVLPDNMHRDCVEEAVKHKKHILLEKPLAKELEDGKAMYELTKDYDKVFTVGFLLRFDPRFNMIKQRLDNGELGDIIHLYCRRNSPITGPKRYIGASDLSMHVMIHDIDYINWYMDSEPVKVIAKSRSVLLKEYGMNDVIYAIVTYENGAIACLEACWVLPENSPTIIDDKLELVGTKGVAYVDSCDHGVRFVSEKGVSYPDSRHWYYTNGEVSGDLAEEVMAFINNVANNTKSIITPKEAYDSLRVVDAIERSIAEGKEVSL,not soluble
15,MTKQTKYVQTVIDELATKGVEALDAMANFTQEQVDHIVHQAAIAALDKHMYLAKLAVDETGRGIYEDKAIKNMYASEYIWNSIKYDKPVGVIAEDKEQGLVSIAEPVGVICGVTPTTNPTSITIFKALIAL,not soluble
